Source: patent US20160250341A1 (Molecular Partners, published 2016)
Residue numbers refer to the chain shown, from its start.

B1: DARPin #29 (designed binder)
chain: MRGSHHHHHHGSDLDKKLLEAARAGQDDEVRILMANGADVNAKDERGTTPLHLAAVYGHLEIVEVLLKAGADVNAKNETGYTPLHLADSSGHLEIVEVLLKHGADVNAQDKSGKTPADLAADAGHEDIAEVLQKLN
B2: DARPin #30 (designed binder)
chain: B1 chain with H102A, G103S
B3: DARPin #27 (designed binder)
chain: B1 chain with H102A
B4: DARPin #28 (designed binder)
chain: B1 chain with G103S
B5: DARPin #20 (designed binder)
chain: MRGSHHHHHHGSDLDKKLLEAARAGQDDEVRILMANGADVNAKDYFSHTPLHLAARNGHLKIVEVLLKAGADVNAKDFAGKTPLHLAANDGHLEIVEVLLKHGADVNAQDIFGKTPADIAADAGHEDIAEVLQKLN
B6: DARPin #22 (designed binder)
chain: B5 chain with D15G, K61E
B7: DARPin #21 (designed binder)
chain: B5 chain with K61E
B8: DARPin #19 (designed binder)
chain: B5 chain with D15G
B9: DARPin #43 (designed binder)
chain: B5 chain with D15G, M34L, A35K, N36A
B10: DARPin #44 (designed binder)
chain: B5 chain with D15G, I32E, M34L, A35K, N36A
B11: DARPin #48 (designed binder)
chain: B5 chain with I32E, M34L, A35K, N36A, H102A
B12: DARPin #47 (designed binder)
chain: B5 chain with M34L, A35K, N36A, H102A
B13: DARPin #46 (designed binder)
chain: B5 chain with D15G, I32E, M34L, A35K, N36A, H102A
B14: DARPin #45 (designed binder)
chain: B5 chain with D15G, M34L, A35K, N36A, H102A

Each binder was assayed against T1, cynomolgus monkey serum albumin (cynomolgus monkey (macaca fascicularis), UniProt A2V9Z4 25-608) (assay: SPR (ProteOn), DARPin captured by anti-RGS-His antibody, albumin injected).
T1 construct: also called CSA
Protocol: (§1) DARPins with binding specificity for xSA were immobilized in a flow cell via their His-tag to coated α-RGS-His antibody (Qiagen, cat. no. 34650), and the interaction of human, cynomolgus monkey (cyno), mouse, rat, rabbit and dog serum albumin with the immobilized DARPins were analyzed.
(§2) SPR was measured using a ProteOn instrument (BioRad) and measurement was performed according standard procedures known to the person skilled in the art. The running buffer was PBS, pH 7.4, containing 0.01% Tween 20®. Anti-RGS-His antibody was covalently immobilized on a GLC chip (BioRad) to a level of about 2000 resonance units (RU). Immobilization of DARPins on the antibody coated chip was then performed by injecting 150 μl of 1 μM DARPin solution in 300 s (flow rate=30 μl/min). The interaction with serum albumin of the different species was then measured by injecting in 60 sec a volume of 100 μl running buffer (PBS containing 0.01% Tween®) containing a distinct serum albumin at a concentration of 400, 200, 100, 50 nM (on-rate measurement), followed by a running buffer flow for 10 to 30 minutes (flow rate=100 μl/min) (off-rate measurement). The signals (i.e. resonance unit (RU) values) of an uncoated reference cell and a reference injection (i.e. injection of running buffer only) were subtracted from the RU traces obtained after injection of the serum albumins (double-referencing). From the SRP traces obtained from the on-rate and off-rate measurements the on- and off-rate of the corresponding DARPin serum albumin interaction can be determined.
(§3) While human and cynomolgus monkey serum albumin are bound by all DARPins analyzed, rabbit, mouse, rat and dog serum albumin is only bound by a subset of these DARPins.

T1 sequence (A2V9Z4 25-608 limits assumed): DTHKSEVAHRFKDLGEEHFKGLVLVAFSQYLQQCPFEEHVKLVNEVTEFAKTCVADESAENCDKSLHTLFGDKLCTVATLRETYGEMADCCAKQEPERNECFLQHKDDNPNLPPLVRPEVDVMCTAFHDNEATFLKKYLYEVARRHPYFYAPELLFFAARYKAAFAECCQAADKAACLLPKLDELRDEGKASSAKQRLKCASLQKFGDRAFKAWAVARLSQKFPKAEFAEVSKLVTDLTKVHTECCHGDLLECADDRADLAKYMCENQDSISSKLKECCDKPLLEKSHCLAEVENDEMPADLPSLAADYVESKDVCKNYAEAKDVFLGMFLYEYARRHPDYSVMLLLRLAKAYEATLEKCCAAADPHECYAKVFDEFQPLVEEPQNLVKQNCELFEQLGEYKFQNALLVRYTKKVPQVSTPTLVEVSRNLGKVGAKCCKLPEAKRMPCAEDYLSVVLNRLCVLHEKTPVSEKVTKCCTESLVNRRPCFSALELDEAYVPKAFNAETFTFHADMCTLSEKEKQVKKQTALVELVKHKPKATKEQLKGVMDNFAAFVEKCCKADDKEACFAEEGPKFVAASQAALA

Kd [nM]	Binder
7	B1
4	B2
6	B3
3	B4
110	B5
74	B6
110	B7
63	B8

Each binder was assayed against T2, human serum albumin (human, UniProt P02768 25-609) in the same assay as above.
T2 construct: also called HSA
Protocol: as §1, §2, §3

T2 sequence (P02768 25-609 limits assumed): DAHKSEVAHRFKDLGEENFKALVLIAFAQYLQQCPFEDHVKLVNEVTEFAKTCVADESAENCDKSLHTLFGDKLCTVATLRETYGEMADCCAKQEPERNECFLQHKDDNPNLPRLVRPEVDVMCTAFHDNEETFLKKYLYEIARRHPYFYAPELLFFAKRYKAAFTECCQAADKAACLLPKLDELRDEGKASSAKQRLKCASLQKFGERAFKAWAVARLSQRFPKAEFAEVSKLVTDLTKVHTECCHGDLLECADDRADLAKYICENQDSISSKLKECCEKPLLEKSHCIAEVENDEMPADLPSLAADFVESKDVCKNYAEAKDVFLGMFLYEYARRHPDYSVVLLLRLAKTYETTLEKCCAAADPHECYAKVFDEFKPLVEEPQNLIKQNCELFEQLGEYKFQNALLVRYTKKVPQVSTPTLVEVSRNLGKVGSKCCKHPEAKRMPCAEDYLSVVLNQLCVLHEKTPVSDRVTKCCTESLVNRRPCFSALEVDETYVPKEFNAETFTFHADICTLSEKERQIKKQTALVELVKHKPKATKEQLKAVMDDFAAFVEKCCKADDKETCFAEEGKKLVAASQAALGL

Kd [nM]	Binder
15	B1
7	B2
11	B3
6	B4
27	B5
30	B9
39	B10
13	B6
26	B7
14	B8
68	B11
96	B12
43	B13
35	B14

These binders were tested against rabbit serum albumin (rabbit, UniProt P49065 25-608) in the same assay as above.
Protocol: as §1, §2, §3

rabbit serum albumin, sequence (P49065 25-608 limits assumed): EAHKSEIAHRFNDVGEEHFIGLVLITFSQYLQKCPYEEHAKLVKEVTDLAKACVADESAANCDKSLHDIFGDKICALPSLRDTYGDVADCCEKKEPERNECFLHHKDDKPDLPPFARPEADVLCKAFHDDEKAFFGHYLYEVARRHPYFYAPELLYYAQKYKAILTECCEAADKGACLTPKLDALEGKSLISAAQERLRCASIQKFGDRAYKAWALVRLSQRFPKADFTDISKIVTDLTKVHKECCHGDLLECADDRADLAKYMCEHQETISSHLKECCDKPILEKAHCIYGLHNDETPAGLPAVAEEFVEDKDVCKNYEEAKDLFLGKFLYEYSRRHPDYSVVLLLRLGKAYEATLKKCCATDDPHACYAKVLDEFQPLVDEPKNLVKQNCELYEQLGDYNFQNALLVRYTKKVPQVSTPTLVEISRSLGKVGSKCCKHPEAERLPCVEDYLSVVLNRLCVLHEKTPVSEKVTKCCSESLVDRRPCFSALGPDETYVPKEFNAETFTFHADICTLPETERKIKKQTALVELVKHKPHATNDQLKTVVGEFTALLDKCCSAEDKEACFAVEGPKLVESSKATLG

Kd [nM]	binding result	Binder
17		B1
8		B2
19		B3
9		B4
	no binding (tested: up to 400 nM)	B5
	no binding (tested: up to 400 nM)	B6
	no binding (tested: up to 400 nM)	B7
	no binding (tested: up to 400 nM)	B8

What follows are binders tested against T3, mouse serum albumin (mouse, UniProt P07724 25-608) in the same assay as above.
T3 construct: also called MSA
Protocol: as §1, §2, §3

binding result	Kd [nM]	Binder
no binding (tested: up to 400 nM)		B1
no binding (tested: up to 400 nM)		B2
no binding (tested: up to 400 nM)		B3
no binding (tested: up to 400 nM)		B4
	124	B5
	68	B6
	142	B7
	56	B8

Each binder was assayed against rat serum albumin (rat, UniProt P02770 25-608) in the same assay as above.
Protocol: as §1, §2, §3

rat serum albumin, sequence (P02770 25-608 limits assumed): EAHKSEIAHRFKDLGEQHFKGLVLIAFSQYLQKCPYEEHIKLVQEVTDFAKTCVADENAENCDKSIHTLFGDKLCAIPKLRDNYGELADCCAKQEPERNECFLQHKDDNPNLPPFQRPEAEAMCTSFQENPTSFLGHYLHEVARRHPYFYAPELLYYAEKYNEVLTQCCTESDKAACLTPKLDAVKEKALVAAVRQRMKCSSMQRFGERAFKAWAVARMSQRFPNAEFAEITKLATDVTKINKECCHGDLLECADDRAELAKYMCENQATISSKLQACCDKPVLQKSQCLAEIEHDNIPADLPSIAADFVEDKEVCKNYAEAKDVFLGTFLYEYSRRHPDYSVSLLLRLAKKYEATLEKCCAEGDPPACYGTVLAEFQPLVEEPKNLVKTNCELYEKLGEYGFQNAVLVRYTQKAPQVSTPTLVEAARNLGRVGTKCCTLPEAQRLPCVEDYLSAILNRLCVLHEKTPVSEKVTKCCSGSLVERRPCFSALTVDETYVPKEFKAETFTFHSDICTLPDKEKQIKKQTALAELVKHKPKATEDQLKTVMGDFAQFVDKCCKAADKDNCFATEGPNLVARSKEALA

binding result	Kd [nM]	Binder
no binding (tested: up to 400 nM)		B1
no binding (tested: up to 400 nM)		B2
no binding (tested: up to 400 nM)		B3
no binding (tested: up to 400 nM)		B4
	242	B5
	109	B6
	266	B7
	91	B8

Each binder was assayed against dog serum albumin (dog, UniProt P49822 25-608) in the same assay as above.
Protocol: as §1, §2, §3

dog serum albumin, sequence (P49822 25-608 limits assumed): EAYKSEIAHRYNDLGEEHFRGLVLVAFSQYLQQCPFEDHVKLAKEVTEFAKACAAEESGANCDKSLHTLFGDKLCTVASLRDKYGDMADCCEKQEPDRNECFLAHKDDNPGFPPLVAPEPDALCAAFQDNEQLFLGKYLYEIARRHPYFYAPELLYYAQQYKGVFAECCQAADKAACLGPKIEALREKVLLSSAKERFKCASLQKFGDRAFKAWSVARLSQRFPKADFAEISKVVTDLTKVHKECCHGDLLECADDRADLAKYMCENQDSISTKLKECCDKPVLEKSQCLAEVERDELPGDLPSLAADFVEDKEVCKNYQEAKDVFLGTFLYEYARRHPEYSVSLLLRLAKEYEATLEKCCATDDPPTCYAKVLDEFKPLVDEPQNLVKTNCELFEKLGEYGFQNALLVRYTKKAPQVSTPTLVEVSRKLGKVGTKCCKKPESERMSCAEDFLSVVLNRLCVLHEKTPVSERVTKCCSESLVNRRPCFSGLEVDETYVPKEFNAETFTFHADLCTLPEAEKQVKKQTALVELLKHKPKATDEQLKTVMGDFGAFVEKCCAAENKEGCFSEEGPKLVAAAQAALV

binding result	Kd [nM]	Binder
no binding (tested: up to 400 nM)		B1
no binding (tested: up to 400 nM)		B2
no binding (tested: up to 400 nM)		B3
no binding (tested: up to 400 nM)		B4
	185	B5
	81	B6
	180	B7
	77	B8
